According to US20200262868A1 (DIGNIFY THERAPEUTICS, published 2020):
Where no end group is shown, it is not given here. [ ]: non-standard residue; d: D form. NMeL = CN[C@@H](CC(C)C)C(=O)O; Nle = CCCC[C@H](N)C(=O)O

Key:
human NK2 Receptor [1] = target: T1, human NK2 Receptor (human, UniProt P21452 1-398); experiment: cell-based or functional assay
T1 sequence (looked up): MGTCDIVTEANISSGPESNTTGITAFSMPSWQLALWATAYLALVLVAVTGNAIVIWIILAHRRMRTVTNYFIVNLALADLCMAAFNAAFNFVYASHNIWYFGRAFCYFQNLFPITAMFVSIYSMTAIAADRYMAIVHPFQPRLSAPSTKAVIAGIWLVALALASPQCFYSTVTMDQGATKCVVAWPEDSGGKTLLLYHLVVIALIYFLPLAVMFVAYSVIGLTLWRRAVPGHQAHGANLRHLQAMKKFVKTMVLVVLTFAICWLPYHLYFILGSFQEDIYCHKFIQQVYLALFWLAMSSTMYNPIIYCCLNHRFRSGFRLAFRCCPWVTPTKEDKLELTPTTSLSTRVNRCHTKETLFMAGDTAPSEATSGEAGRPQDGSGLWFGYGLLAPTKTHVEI

human NK1 Receptor [2] = target: T2, human NK1 Receptor (human, UniProt P25103 1-407); experiment: cell-based or functional assay
human NK2 Receptor [3] = target: T1, human NK2 Receptor; experiment: cell-based or functional assay; remark: listed apart in the source
human NK1 Receptor [4] = target: T2, human NK1 Receptor; experiment: cell-based or functional assay; remark: listed apart in the source
human NK2 Receptor [5] = target: T1, human NK2 Receptor; experiment: radioligand competition, displacement of 0.1 nM [125I]-NKA from CHO-hNK2 membranes
Description: (§1) Filtration Assays: Stock solutions of compounds (10 mM) were prepared in DMSO and stored at −20° C. until use. Further dilutions were performed in DMSO to provide an 11-point concentration response curve (CRC) spanning final concentrations from 0.01 nM to 10 μM. Radioligand binding experiments were performed immediately after transferring 2 μL of each concentration of test compound to a 96-well plate. […] After drying for 1 h at 40° C., 50 μL of Microscint-20 was added to each filter plate and bound radioactivity was measured using a Microplate TopCount (Packard C9912). […] Filters were washed 4 times with 1 mL ice cold 0.9% NaCl and placed into pico vials with 4 mL of Filter Count.

human NK1 Receptor [6] = target: T2, human NK1 Receptor; experiment: radioligand competition, displacement of 5.0 nM [3H]-septide from CHO-hNK1 membranes
Description: as §1

human NK2 Receptor [7] = target: T1, human NK2 Receptor; experiment: ratio of Ki hNK1R/hNK2R from the radioligand competition assays
Description: as §1

T2 sequence (P25103 whole entry): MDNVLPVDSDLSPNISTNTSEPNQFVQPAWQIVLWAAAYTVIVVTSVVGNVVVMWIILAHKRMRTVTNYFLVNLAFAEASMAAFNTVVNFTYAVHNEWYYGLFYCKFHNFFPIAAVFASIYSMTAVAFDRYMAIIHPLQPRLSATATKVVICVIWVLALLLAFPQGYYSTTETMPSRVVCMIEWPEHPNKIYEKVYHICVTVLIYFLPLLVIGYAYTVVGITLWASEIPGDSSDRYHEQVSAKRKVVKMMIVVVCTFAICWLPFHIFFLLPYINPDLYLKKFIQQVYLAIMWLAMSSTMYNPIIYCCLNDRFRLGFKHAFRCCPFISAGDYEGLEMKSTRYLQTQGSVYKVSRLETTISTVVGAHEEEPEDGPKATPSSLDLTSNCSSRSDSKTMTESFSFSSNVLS

Binder	maximal calcium response compared to Neurokinin A (human NK2 Receptor [1])	maximal calcium response compared to Substance P (human NK1 Receptor [2])	hNK2 EC50 (intracellular calcium mobilization, FLIPR, CHO-hNK2 cells) (human NK2 Receptor [3])	hNK1 EC50 (intracellular calcium mobilization, FLIPR, CHO-hNK1 cells) (human NK1 Receptor [4])	Ki (human NK2 Receptor [5])	Ki (human NK1 Receptor [6])	hNK2 selectivity ratio (EC50 hNK1R/hNK2R) (human NK2 Receptor [3])	hNK2 selectivity ratio (human NK2 Receptor [7])
DKFVG[NMeL]M-NH2 (synthetic heptapeptide analog of neurokinin A, Fmoc solid-phase synthesis; also called Compound A; Cmpd A) [Heptapeptide analog A, Asp-Lys-Phe-Val-Gly-(NMe-Leu)-Met-NH2]	> 80%	> 90%	0.14 nM	0.95 nM	0.2 nM	50.1 nM	–	–
DRFVGLM (HELM PEPTIDE1{D.R.F.V.G.[meL].M.[am]}$$$$V2.0; N-terminus assumed; SMILES CSCC[C@H](NC(=O)[C@H](CC(C)C)N(C)C(=O)CNC(=O)[C@@H](NC(=O)[C@H](Cc1ccccc1)NC(=O)[C@H](CCCNC(=N)N)NC(=O)[C@@H](N)CC(=O)O)C(C)C)C(N)=O, synthetic heptapeptide analog of neurokinin A, Fmoc solid-phase synthesis; also called Compound C; Cmpd C) [Heptapeptide analog C, Asp-Arg-Phe-Val-Gly-(NMe-Leu)-Met-NH2]	> 80%	> 90%	0.16 nM	0.3 nM	0.12 nM	20.9 nM	2 ratio	167 ratio
DKFVALM (HELM PEPTIDE1{D.K.F.V.[bAla].L.M.[am]}$$$$V2.0; N-terminus assumed; SMILES CSCC[C@H](NC(=O)[C@H](CC(C)C)NC(=O)CCNC(=O)[C@@H](NC(=O)[C@H](Cc1ccccc1)NC(=O)[C@H](CCCCN)NC(=O)[C@@H](N)CC(=O)O)C(C)C)C(N)=O, synthetic heptapeptide analog of neurokinin A, Fmoc solid-phase synthesis; also called Compound E; Cmpd E) [Heptapeptide analog E, Asp-Lys-Phe-Val-(β-Ala)-Leu-Met-NH2]	> 80%	> 90%	0.18 nM	6.31 nM	2.11 nM	257 nM	36 ratio	122 ratio
DRFVGLM-NH2 (synthetic heptapeptide analog of neurokinin A, Fmoc solid-phase synthesis; also called Compound H; Cmpd H) [Heptapeptide analog H, Asp-Arg-Phe-Val-Gly-Leu-Met-NH2]	> 80%	> 90%	0.19 nM	0.16 nM	0.31 nM	8.32 nM	0.8 ratio	27.1 ratio
DRFVALM (HELM PEPTIDE1{D.R.F.V.[bAla].L.M.[am]}$$$$V2.0; N-terminus assumed; SMILES CSCC[C@H](NC(=O)[C@H](CC(C)C)NC(=O)CCNC(=O)[C@@H](NC(=O)[C@H](Cc1ccccc1)NC(=O)[C@H](CCCNC(=N)N)NC(=O)[C@@H](N)CC(=O)O)C(C)C)C(N)=O, synthetic heptapeptide analog of neurokinin A, Fmoc solid-phase synthesis; also called Compound I; Cmpd I) [Heptapeptide analog I, Asp-Arg-Phe-Val-(β-Ala)-Leu-Met-NH2]	> 80%	> 90%	0.15 nM	1.83 nM	0.88 nM	95.5 nM	12 ratio	108 ratio
DRFVG[NMeL][Nle]-NH2 (synthetic heptapeptide analog of neurokinin A, Fmoc solid-phase synthesis; also called Compound B; Cmpd B) [Heptapeptide analog B, Asp-Arg-Phe-Val-Gly-(NMe-Leu)-Nle-NH2]	> 80%	> 90%	0.08 nM	5.84 nM	0.59 nM	331 nM	70 ratio	558 ratio
DKFVALX (HELM PEPTIDE1{D.K.F.V.[bAla].L.[Nle].[am]}$$$$V2.0; N-terminus assumed; SMILES CCCC[C@H](NC(=O)[C@H](CC(C)C)NC(=O)CCNC(=O)[C@@H](NC(=O)[C@H](Cc1ccccc1)NC(=O)[C@H](CCCCN)NC(=O)[C@@H](N)CC(=O)O)C(C)C)C(N)=O, synthetic heptapeptide analog of neurokinin A, Fmoc solid-phase synthesis; also called Compound G; Cmpd G) [Heptapeptide analog G, Asp-Lys-Phe-Val-(β-Ala)-Leu-Nle-NH2]	> 80%	> 90%	3 nM	78.2 nM	16.4 nM	3090 nM	26 ratio	189 ratio
DRFVALX (HELM PEPTIDE1{D.R.F.V.[bAla].L.[Nle].[am]}$$$$V2.0; N-terminus assumed; SMILES CCCC[C@H](NC(=O)[C@H](CC(C)C)NC(=O)CCNC(=O)[C@@H](NC(=O)[C@H](Cc1ccccc1)NC(=O)[C@H](CCCNC(=N)N)NC(=O)[C@@H](N)CC(=O)O)C(C)C)C(N)=O, synthetic heptapeptide analog of neurokinin A, Fmoc solid-phase synthesis; also called Compound K; Cmpd K) [Heptapeptide analog K, Asp-Arg-Phe-Val-(β-Ala)-Leu-Nle-NH2]	> 80%	> 90%	1.16 nM	29.5 nM	6.85 nM	1200 nM	25 ratio	176 ratio
DRFVGLX (HELM PEPTIDE1{D.R.F.V.G.L.[Nle].[am]}$$$$V2.0; N-terminus assumed; SMILES CCCC[C@H](NC(=O)[C@H](CC(C)C)NC(=O)CNC(=O)[C@@H](NC(=O)[C@H](Cc1ccccc1)NC(=O)[C@H](CCCNC(=N)N)NC(=O)[C@@H](N)CC(=O)O)C(C)C)C(N)=O, synthetic heptapeptide analog of neurokinin A, Fmoc solid-phase synthesis; also called Compound J; Cmpd J) [Heptapeptide analog J, Asp-Arg-Phe-Val-Gly-Leu-Nle-NH2]	> 80%	> 90%	0.2 nM	1.71 nM	1.74 nM	126 nM	9 ratio	72.5 ratio
DKFVGLM-NH2 [Heptapeptide analog D, Asp-Lys-Phe-Val-Gly-Leu-Met-NH2]	> 80%	> 90%	–	–	–	–	–	–
